Where “and” joins values, the source holds several entries; their conditions need not be identical. Identical values can stand only once. Like-named read-outs stand apart in the source and are kept apart here.
Experiments:
[1] = biological target: T1, Recombinant Human FGF-23 (R&D Systems, Cat No. 2604-FG-025/CF) (human, UniProt Q9GZV9 25-251); assay: cell-based or functional assay
T1 sequence (looked up): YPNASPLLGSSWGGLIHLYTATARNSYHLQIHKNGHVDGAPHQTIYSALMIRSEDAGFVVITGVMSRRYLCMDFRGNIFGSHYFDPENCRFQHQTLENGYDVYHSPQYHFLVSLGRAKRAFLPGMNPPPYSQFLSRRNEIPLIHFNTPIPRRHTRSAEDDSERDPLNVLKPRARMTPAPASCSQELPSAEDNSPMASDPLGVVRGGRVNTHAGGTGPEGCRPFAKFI

[2] = biological target: T1, Recombinant Human FGF-23 (R&D Systems, …); assay: cell-based or functional assay; remark: listed apart in the source
[3] = biological target: T1, Recombinant Human FGF-23 (R&D Systems, …); assay: SPR, antibody captured on Protein A chip, FGF-23 analyte
[4] = biological target: T1, Recombinant Human FGF-23 (R&D Systems, …); assay: as above; remark: listed apart in the source
[5] = biological target: T1, Recombinant Human FGF-23 (R&D Systems, …); assay: cell-based or functional assay; remark: listed apart in the source
[6] = biological target: T1, Recombinant Human FGF-23 (R&D Systems, …); assay: cell-based or functional assay; remark: listed apart in the source
[7] = biological target: T1, Recombinant Human FGF-23 (R&D Systems, …); assay: cell-based or functional assay; remark: listed apart in the source
[8] = biological target: T1, Recombinant Human FGF-23 (R&D Systems, …); assay: SPR, antibody captured by anti-human IgG, FGF-23 analyte
[9] = biological target: T1, Recombinant Human FGF-23 (R&D Systems, …); assay: as above; remark: listed apart in the source
[10] = biological target: T1, Recombinant Human FGF-23 (R&D Systems, …); assay: as above; remark: listed apart in the source
[11] = biological target: T1, Recombinant Human FGF-23 (R&D Systems, …); assay: as above; remark: listed apart in the source
[12] = biological target: T1, Recombinant Human FGF-23 (R&D Systems, …); assay: SPR, antibody captured on Protein A chip, FGF-23 analyte; remark: listed apart in the source
[13] = biological target: T2, human FcRn (human FcRn-His tag with human β2 microglobulin) (human, UniProt P55899 24-297; P61769 21-119); assay: SPR pH 6, FcRn-His captured by anti-His, antibody analyte
T2 construct: also called h FcRn; hFcRn
T2 sequence (P55899 other isoform, or with tags, fused parts or gaps limits assumed, chain 1 of 2): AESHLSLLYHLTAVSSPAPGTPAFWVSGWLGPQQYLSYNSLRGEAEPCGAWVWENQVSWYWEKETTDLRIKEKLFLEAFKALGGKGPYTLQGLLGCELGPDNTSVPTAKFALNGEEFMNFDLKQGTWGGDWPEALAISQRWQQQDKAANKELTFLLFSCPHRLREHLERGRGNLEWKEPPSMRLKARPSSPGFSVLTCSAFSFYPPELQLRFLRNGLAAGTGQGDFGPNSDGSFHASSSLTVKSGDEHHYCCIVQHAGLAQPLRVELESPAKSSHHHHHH
T2 sequence (P61769 21-119 limits assumed, chain 2 of 2): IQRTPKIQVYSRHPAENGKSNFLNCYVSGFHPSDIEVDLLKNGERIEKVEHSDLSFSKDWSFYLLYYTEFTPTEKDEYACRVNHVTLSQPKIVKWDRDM

B1: antibody A-10 (antibody, V domains shown)
VH: QVQLVQSGAEVKKPGASVKVSCKASGYTFTNHYMHWVRQAPGQGLEWMGIINPISGSTSNAQKFQGRVTMTRDTSTSTVYMELSSLRSEDTAVYYCARDYVDAFDFWGQGTMVTVSS
VL: AIQLTQSPSSLSASVGDRVTITCRASQGISSALVWYQQKPGKAPKLLIYDASSLESGVPSRFSGSGSGTDFTLTISSLQPEDFATYYCQQFYDDFDFGPGTKVDIK
notes: not shown: human kappa chain constant region
FGF23 neutralizing activity, fold against antibody A [1]: 2 fold | FGF23 neutralizing activity IC50 (luciferase promoter assay) [2]: 1.5 ng/mL | Kd [3]: 20.2 pM

B2: antibody A-9 (antibody, V domains shown)
VH: QVQLVQSGAEVKKPGASVKVSCKASGYTFTNHYMHWVRQAPGQGLEWMGIINPISGSTSNAQKFQGRVTMTRDTSTSTVYMELSSLRSEDTAVYYCARDAVDAFDFWGQGTMVTVSS
VL: AIQLTQSPSSLSASVGDRVTITCRASQGISSALVWYQQKPGKAPKLLIYDASSLESGVPSRFSGSGSGTDFTLTISSLQPEDFATYYCQQFWDDFDFGPGTKVDIK
notes: as for B1
FGF23 neutralizing activity, fold against antibody A [1]: 3 fold | FGF23 neutralizing activity IC50 (luciferase promoter assay) [2]: 1 ng/mL | fold antigen binding activity against antibody A [4]: 2 fold | Kd [3]: 6.87 pM

B3: antibody A (antibody, human IgG1)
heavy: not shown
light: AIQLTQSPSSLSASVGDRVTITCRASQGISSALVWYQQKPGKAPKLLIYDASSLESGVPSRFSGSGSGTDFTLTISSLQPEDFATYYCQQFNDYFTFGPGTKVDIK
notes: Human IgG1 antibody, kappa light chain; also called A_1; A_2; not shown: human kappa chain constant region
FGF23 neutralizing activity IC50 (luciferase promoter assay) [5]: 1.4 ng/mL | FGF23 neutralizing activity IC50 (luciferase promoter assay) [6]: 1.2 ng/mL | FGF23 neutralizing activity IC50 (luciferase promoter assay) [7]: 3.3 ng/mL | FGF23 neutralizing activity IC50 (luciferase promoter assay), antibody A in same measurement lot [7]: 3.1 ng/mL and 3.3 ng/mL | FGF23 neutralizing activity IC50 (luciferase promoter assay) [2]: 3.2 ng/mL | FGF23 neutralizing activity IC50 (luciferase promoter assay), antibody A in same measurement lot [2]: 3.2 ng/mL and 2.8 ng/mL | Kd [8]: 4.51 pM | kon [8]: 9.12e+07 M⁻¹ s⁻¹ | Kd [9]: 2.06 pM and 2.6 pM and 3.76 pM | Kd [10]: 3.76 pM and 4.15 pM | Kd [11]: 9.93 pM | Kd [12]: 8.77 pM | Kd [3]: 14.4 pM

B4: antibody A_IgG4PE_R409K_LS (antibody)
heavy: QVQLVQSGAEVKKPGASVKVSCKASGYTFTNHYMHWVRQAPGQGLEWMGIINPISGSTSNAQKFQGRVTMTRDTSTSTVYMELSSLRSEDTAVYYCARDIVDAFDFWGQGTMVTVSSASTKGPSVFPLAPCSRSTSESTAALGCLVKDYFPEPVTVSWNSGALTSGVHTFPAVLQSSGLYSLSSVVTVPSSSLGTKTYTCNVDHKPSNTKVDKRVESKYGPPCPPCPAPEFEGGPSVFLFPPKPKDTLMISRTPEVTCVVVDVSQEDPEVQFNWYVDGVEVHNAKTKPREEQFNSTYRVVSVLTVLHQDWLNGKEYKCKVSNKGLPSSIEKTISKAKGQPREPQVYTLPPSQEEMTKNQVSLTCLVKGFYPSDIAVEWESNGQPENNYKTTPPVLDSDGSFFLYSKLTVDKSRWQEGNVFSCSVLHEALHSHYTQKSLSLSLGK
light: AIQLTQSPSSLSASVGDRVTITCRASQGISSALVWYQQKPGKAPKLLIYDASSLESGVPSRFSGSGSGTDFTLTISSLQPEDFATYYCQQFNDYFTFGPGTKVDIK
notes: not shown: human kappa chain constant region; copies: 2 + 2
Kd [13]: 116000 pM
